The data set deals with ALPG/P priming receptor encoded by the LG1 + FAS/PTPN2 shRNA circuits AB-1013, AB-1014 and AB-1015.
Chain of ALPG/P priming receptor encoded by the LG1 + FAS/PTPN2 shRNA circuits AB-1013, AB-1014 and AB-1015 (chain, as listed by the source): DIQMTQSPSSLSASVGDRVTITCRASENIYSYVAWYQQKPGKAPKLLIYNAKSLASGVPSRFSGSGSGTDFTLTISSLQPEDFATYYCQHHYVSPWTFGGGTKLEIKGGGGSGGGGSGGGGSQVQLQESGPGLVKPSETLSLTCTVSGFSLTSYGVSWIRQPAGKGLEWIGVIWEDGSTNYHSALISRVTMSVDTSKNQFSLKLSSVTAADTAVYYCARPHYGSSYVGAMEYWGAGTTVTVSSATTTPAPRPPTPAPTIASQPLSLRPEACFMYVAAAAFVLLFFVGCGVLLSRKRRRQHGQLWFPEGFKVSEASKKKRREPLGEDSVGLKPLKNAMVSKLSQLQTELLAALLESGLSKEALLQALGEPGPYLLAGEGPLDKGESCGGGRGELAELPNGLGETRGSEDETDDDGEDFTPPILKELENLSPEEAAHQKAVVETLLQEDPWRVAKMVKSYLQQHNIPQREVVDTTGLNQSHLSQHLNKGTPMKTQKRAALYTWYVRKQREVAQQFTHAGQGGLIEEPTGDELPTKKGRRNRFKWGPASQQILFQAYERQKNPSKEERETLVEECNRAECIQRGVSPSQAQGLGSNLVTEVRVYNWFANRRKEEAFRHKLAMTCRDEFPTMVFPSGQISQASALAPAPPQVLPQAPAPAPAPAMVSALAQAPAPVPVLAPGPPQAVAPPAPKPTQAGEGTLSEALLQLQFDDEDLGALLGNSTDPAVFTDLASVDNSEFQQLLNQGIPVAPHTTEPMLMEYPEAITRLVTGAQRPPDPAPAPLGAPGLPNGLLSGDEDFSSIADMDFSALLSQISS

B1: Alkaline Phosphatase, Germ Cell (ALPG), expressed on engineered K562 cells (protein)
chain: IIPVEEENPDFWNRQAAEALGAAKKLQPAQTAAKNLIIFLGDGMGVSTVTAARILKGQKKDKLGPETFLAMDRFPYVALSKTYSVDKHVPDSGATATAYLCGVKGNFQTIGLSAAARFNQCNTTRGNEVISVMNRAKKAGKSVGVVTTTRVQHASPAGAYAHTVNRNWYSDADVPASARQEGCQDIATQLISNMDIDVILGGGRKYMFPMGTPDPEYPDDYSQGGTRLDGKNLVQEWLAKHQGARYVWNRTELLQASLDPSVTHLMGLFEPGDMKYEIHRDSTLDPSLMEMTEAALLLLSRNPRGFFLFVEGGRIDHGHHESRAYRALTETIMFDDAIERAGQLTSEEDTLSLVTADHSHVFSFGGYPLRGSSIFGLAPGKARDRKAYTVLLYGNGPGYVLKDGARPDVTESESGSPEYRQQSAVPLDGETHAGEDVAVFARGPQAHLVHGVQEQTFIAHVMAFAACLEPYTACDLAPRAGTTD
For the protein B1, the “% CAR Conversion, time to peak” value is listed as “reached a peak after around 100 hours of stimulation with the PrimeR antigen”.

Values taken from patent publication US20220235380.
